Test results taken from US20240166745A1 (Eli Lilly, published 2024).

T1: Cynomolgus LAG-3-ECD (cynomolgus)
T1 construct: as printed it starts with the N-terminal leader (MWEAQ...) and ends with a His tag; also called Cynomolgus LAG-3 ECD-His
T1 chain: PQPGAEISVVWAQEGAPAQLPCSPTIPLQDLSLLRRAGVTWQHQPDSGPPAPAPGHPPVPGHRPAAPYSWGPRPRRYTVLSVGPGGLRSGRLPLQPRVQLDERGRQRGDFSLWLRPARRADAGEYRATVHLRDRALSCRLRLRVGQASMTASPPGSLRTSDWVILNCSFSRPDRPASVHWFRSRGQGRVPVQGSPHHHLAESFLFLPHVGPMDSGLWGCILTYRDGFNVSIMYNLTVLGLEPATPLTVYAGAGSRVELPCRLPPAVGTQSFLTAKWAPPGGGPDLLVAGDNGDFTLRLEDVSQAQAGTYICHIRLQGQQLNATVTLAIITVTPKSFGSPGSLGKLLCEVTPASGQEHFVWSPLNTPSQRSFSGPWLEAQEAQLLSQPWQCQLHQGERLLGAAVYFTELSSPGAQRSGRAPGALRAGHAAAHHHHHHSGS

T2: Human LAG-3 ECD-His (human, UniProt P18627 23-449)
T2 construct: Soluble analyte in SPR; the entry includes linker and His tag; also called human LAG-3-His
T2 sequence: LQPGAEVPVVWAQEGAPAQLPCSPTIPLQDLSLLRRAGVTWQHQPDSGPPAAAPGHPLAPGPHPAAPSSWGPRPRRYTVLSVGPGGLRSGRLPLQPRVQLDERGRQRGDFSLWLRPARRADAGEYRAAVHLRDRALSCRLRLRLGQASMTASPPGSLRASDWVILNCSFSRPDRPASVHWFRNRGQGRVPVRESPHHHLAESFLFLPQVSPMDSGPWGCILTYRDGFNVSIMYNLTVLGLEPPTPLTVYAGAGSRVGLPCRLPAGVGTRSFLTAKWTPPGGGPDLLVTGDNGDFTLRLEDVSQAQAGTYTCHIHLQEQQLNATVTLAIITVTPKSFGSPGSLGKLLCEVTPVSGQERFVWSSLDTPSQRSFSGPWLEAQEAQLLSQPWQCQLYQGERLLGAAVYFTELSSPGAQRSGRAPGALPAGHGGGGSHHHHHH


Columns and labels:
[1] = biological target: T1, Cynomolgus LAG-3-ECD; experiment: SPR (Biacore T200), antibody captured on PrismA chip, ECD as analyte, 37° C.
Procedure: (§1) A Biacore® T200 (Cytiva, Marlborough, MA) was used to measure the binding kinetics and affinities of the LAG-3 antibody to the LAG-3 soluble extracellular domain (ECD) and the bispecific antibody to soluble LAG-3-ECD and PD-1-ECD (human: Sino Biologicals, Cat #10377-H08H; cynomolgus: Sino Biologicals, Cat #90311-C08H) by surface plasmon resonance. Samples were diluted in HBS-EP+ (10 mM Hepes, 150 mM NaCl, 3 mM EDTA, 0.05% Tween-20, pH 7.6) (Teknova Cat #H8022) with 5 g/L of BSA (Jackson ImmunoResearch Cat #001-000-161) running buffer. PrismA Series S Sensor chip (Cat #29650263) is purchased from Cytiva.
Binding was evaluated using multi-cycle kinetics by an antibody capture method. Each cycle was performed at either 37° C. or 25° C. at a flow rate of 10 μL/min for antibody capture to the PrismA chip and 100 μL/min for analyte association (with 120 sec contact time) and dissociation (900 sec). Each cycle consisted of the following steps: injection of bispecific antibody at 1 μg/mL in HBS-EP+ targeting Rmax values of 125 RU (LAG-3 arm), 294 RU (PD-1 arm) and 63 RU (LAG-3 antibody) on flow cell, injection of analyte in HBS-EP+(concentration range of 62.5 nM to 0.25 nM by two-fold serial dilution for both human PD-1-ECD-His (SEQ ID NO: 40) and human LAG-3-His (SEQ ID NO: 42) followed by 900-second dissociation phase, and regeneration using 10 μL of 10 mM glycine hydrochloride, pH 1.5 over a 60-second contact time utilizing a 10 μL/min flow rate. All analyte concentrations were determined utilizing monomeric molecular weight (MW) values. Association rates (kₒₙ) and dissociation rates (koff) for LAG-3-ECD and PD-1-ECD were evaluated using double referencing by flow-cell one reference subtraction in addition to 0 nM blank subtraction and fit to “1:1 (Langmuir) binding” model in the BIAevaluation software version 4.1. The dissociation constant (KD) was calculated from the binding kinetics according to the relationship KD=Koff/Kₒₙ. Stoichiometry=[RUₘₐₓ/RUcaptured]/[MWanalyte/MWantibody] where MWAntibodyA is 150 kDa. Values are reported as mean±standard deviation.

[2] = biological target: T3, cell membrane-expressed human LAG-3/PD-1 (human, UniProt P18627 23-525; Q15116 25-288); experiment: flow cytometry, labeled antibody on anti-CD3 activated human PBMC, CD4 T cells, percent of cells bound (mean +/- SEM, n=3)
T3 construct: also called Human CD4
T3 sequence (Q15116 25-288 limits assumed, one chain of several): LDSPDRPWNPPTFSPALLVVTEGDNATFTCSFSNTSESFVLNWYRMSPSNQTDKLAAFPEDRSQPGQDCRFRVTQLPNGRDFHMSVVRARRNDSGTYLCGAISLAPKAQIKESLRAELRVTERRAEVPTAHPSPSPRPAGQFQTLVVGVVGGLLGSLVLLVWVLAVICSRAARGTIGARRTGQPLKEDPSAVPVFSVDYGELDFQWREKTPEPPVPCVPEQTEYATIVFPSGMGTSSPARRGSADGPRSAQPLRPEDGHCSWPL
Procedure: (§2) Cells were incubated with 10-12 point, 3-fold serial dilutions of the respective labeled antibody (Invitrogen #S20026, Invitrogen #C20029), starting at 30 ug/mL, in PBS+2% FCS for 30 minutes at 4° C. and containing the following: CD4 eBioscience #12-0047-42 or Biolegend #344634; CD8 eBioscience #25-0088-42; CD3 eBioscience 56-0038-82 for human cells and BD #557917 for cyno cells; CD33 eBioscience 45-0338-42 for human cells; Live/Dead eBioscience #65-0865-18. After washing thoroughly, cells were processed on a BD Fortessa or Fortessa X20 cytometer, and data were analyzed with Flowjo software (BD Biosciences). Percent of cells bound by the respective antibody is quantified and graphed with Prism (Graphpad, San Diego, CA).

[3] = biological target: T4, cell membrane-expressed cynomolgus LAG-3/PD-1 (cynomolgus); experiment: flow cytometry, labeled antibody on anti-CD3 activated cynomolgus PBMC, CD4 T cells, percent of cells bound (mean +/- SEM, n=3)
T4 construct: whole, on cells; Two separate membrane proteins on the same cells, not a complex; also called Cyno CD4
T4 sequence (P79185 26-458): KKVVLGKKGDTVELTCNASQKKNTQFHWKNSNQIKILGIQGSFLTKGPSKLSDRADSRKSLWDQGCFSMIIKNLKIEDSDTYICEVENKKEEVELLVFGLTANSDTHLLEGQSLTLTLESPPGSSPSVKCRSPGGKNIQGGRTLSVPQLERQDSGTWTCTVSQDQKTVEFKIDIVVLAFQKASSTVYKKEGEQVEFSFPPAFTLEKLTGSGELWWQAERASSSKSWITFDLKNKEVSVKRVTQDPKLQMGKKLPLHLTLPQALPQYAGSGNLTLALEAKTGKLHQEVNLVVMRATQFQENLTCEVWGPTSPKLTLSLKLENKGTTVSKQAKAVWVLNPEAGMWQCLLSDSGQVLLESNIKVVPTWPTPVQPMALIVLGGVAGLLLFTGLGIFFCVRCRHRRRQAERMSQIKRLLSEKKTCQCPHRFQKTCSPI
Procedure: as §2

[4] = biological target: T4, cell membrane-expressed cynomolgus …; experiment: flow cytometry, labeled antibody on anti-CD3 activated cynomolgus PBMC, CD8 T cells, percent of cells bound (mean +/- SEM, n=3)
Procedure: as §2

[5] = biological target: T2, Human LAG-3 ECD-His; experiment: SPR (Biacore T200), antibody captured on PrismA chip, ECD as analyte, 37° C., steady-state equilibrium model (SS); 37° C., steady-state equilibrium model
[6] = biological target: T5, Human PD-1 ECD-His (human, UniProt Q15116 25-167); experiment: SPR (Biacore T200), antibody captured on PrismA chip, ECD as analyte; temperature unclear: the 37° C. label is printed only at r14, by the order of Table 3a probably 37° C.; 37° C. (label printed late, at r14)
T5 construct: Soluble analyte in SPR; the entry includes the His tag
T5 sequence (Q15116 other isoform, or with tags, fused parts or gaps): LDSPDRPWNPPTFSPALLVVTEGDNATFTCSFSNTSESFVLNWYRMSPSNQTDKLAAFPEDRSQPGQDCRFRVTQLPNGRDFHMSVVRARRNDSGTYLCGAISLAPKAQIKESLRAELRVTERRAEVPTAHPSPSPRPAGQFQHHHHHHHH
Procedure: as §1
Binding was evaluated using multi-cycle kinetics by an antibody capture method. […] Each cycle consisted of the following steps: injection of bispecific antibody at 1 μg/mL in HBS-EP+ targeting Rmax values of 125 RU (LAG-3 arm), 294 RU (PD-1 arm) and 63 RU (LAG-3 antibody) on flow cell, injection of analyte in HBS-EP+(concentration range of 62.5 nM to 0.25 nM by two-fold serial dilution for both human PD-1-ECD-His (SEQ ID NO: 40) and human LAG-3-His (SEQ ID NO: 42) followed by 900-second dissociation phase, and regeneration using 10 μL of 10 mM glycine hydrochloride, pH 1.5 over a 60-second contact time utilizing a 10 μL/min flow rate. All analyte concentrations were determined utilizing monomeric molecular weight (MW) values. […]

| Binder | Kd [1] [nM] | koff [1] [s⁻¹] | kon [1] [M⁻¹ s⁻¹] | EC50 [2] [µg/mL] | EC50 [3] [µg/mL] | EC50 [4] [µg/mL] | Kd [5] [nM] | kon [6] [M⁻¹ s⁻¹] |
| --- | --- | --- | --- | --- | --- | --- | --- | --- |
| Antibody A (bispecific antibody, human IgG1, kappa, lambda, IgG-like bispecific with one LAG-3 arm and one PD-1 arm; also called human LAG-3/human PD-1 dual agonist bispecific antibody) heavy 1: not shown light 1: DIVMTQTPLSLPVTPGEPASISCRSSQSLLDSAEGSTYLDWFLRKPGDSPQLLIYTLSYRASGVPDRFSGSGSGTDFTLKISRVEAEDVGVYYCMQRVEFPYTFGQGTKVEIKRTVAAPSVFIFPPSKEQLKSGTASVVCLLNNFYPREAKVQWKVDNALQSGNSQESVTEQDSKDSTYSLSSTLTLSKADYEKHKVYACEVTHQGLSSPVTKSFNRGEC heavy 2: QVQLVQSGAEVKKPGASVKVSCKVSGYSLSKYDMSWVRKAPGKGLEWMGIIYTSGYTDYAQEFQGRVTMTEDTSTDTAYMELSSLRSEDTAVYYCATGNPYYTNGFNSWGQGTLVTVSSASTKGPSVFPLAPSSKSTSGGTAALGCLVKDYFPEPVTVSWNSGALTSGVATGPAVLQSSGLYSLSSVVTVPSSSLGTQTYICNVNHKPSNTKVDKRVEPKSCDKTHTCPPCPAPELLGGPSVFLFPPKPKDTLMISRTPEVTCVVVDVSHEDPEVKFNWYVDGVEVHNAKTKPREEQYNSTYRVVSVLTVLHQDWLNGKEYKCKVSNKALPAPIEKTISKAKGQPREPQVYTLPPSREEMTDNQVSLTCLVKGFYPSDIAVEWESNGQPENNYKTTPPVLMSDGSFFLASKLTVDKSRWQQGNVFSCSVMHEALHNHYTQKSLSLSPGK light 2: RIQMTQSPSSLSASVGDRVTITCQASQSPNNLLAWYQDKPGKAPKLLIYGASDLPSGVPSRFSGSGSGTDFTLTISSLQPEDFATYYCQNNYYVGPVSYAFGGGTKVEIKGQPKAAPSVTLFPPSSEELQANKATLVCYISDFYPGAVTVAWKADSSPVKAGVETTTPSKQSNNKYAAWSYLSLTPEQWKSHRSYSCQVTHEGSTVEKTVAPTEC | 0.51 | 0.01 | 2e+07 | 0.0357 | 0.0293 | 0.0167 | 5.7 |  |
| Antibody B (bispecific antibody, human IgG1, kappa, lambda, also called human LAG-3/human PD-1 dual agonist bispecific antibody) heavy 1: not shown light 1: DIVMTQTPLSLPVTPGEPASISCRSSQSLLDSAEGSTYLDWFLRKPGDSPQLLIYTLSYRASGVPDRFSGSGSGTDFTLKISRVEAEDVGVYYCMQRVEFPYTFGQGTKVEIKRTVAAPSVFIFPPSKEQLKSGTASVVCLLNNFYPREAKVQWKVDNALQSGNSQESVTEQDSKDSTYSLSSTLTLSKADYEKHKVYACEVTHQGLSSPVTKSFNRGEC heavy 2: QVQLVQSGAEVKKPGASVKVSCKVSGYSLSKYDMSWVRKAPGKGLEWMGIIYTSGYTDYAQEFQGRVTMTEDTSTDTAYMELSSLRSEDTAVYYCATGNPYYTNGFNSWGQGTLVTVSSASTKGPSVFPLAPSSKSTSGGTAALGCLVKDYFPEPVTVSWNSGALTSGVATGPAVLQSSGLYSLSSVVTVPSSSLGTQTYICNVNHKPSNTKVDKRVEPKSCDKTHTCPPCPAPELLGGPSVFLFPPKPKDTLMISRTPEVTCVVVDVSHEDPEVKFNWYVDGVEVHNAKTKPREEQYNSTYRVVSVLTVLHQDWLNGKEYKCAVSNKALPAPIEKTISKAKGQPREPQVYTLPPSREEMTDNQVSLTCLVKGFYPSDIAVEWESNGQPENNYKTTPPVLMSDGSFFLASKLTVDKSRWQQGNVFSCSVMHEALHNHYTQKSLSLSPGK light 2: RIQMTQSPSSLSASVGDRVTITCQASQSPNNLLAWYQDKPGKAPKLLIYGASDLPSGVPSRFSGSGSGTDFTLTISSLQPEDFATYYCQNNYYVGPVSYAFGGGTKVEIKGQPKAAPSVTLFPPSSEELQANKATLVCYISDFYPGAVTVAWKADSSPVKAGVETTTPSKQSNNKYAAWSYLSLTPEQWKSHRSYSCQVTHEGSTVEKTVAPTEC | 0.48 | 0.0098 | 2e+07 | 0.0423 | 0.0337 | 0.018 |  | 2.4e+06 |
